Data from US20250270295A1.

Molecular target: soluble gp34 wild type ectodomain, V5-His tagged (sgp34wt-V5-His) (HCMV strain AD169)
Experiment: blocking of sgp34wt binding to immobilized human IgG, ELISA

Substance: mouse IgG1 isotype antibody
- IC50: 9.69 µg/mL
